In patent publication US20250367130A1, “THERMORESPONSIVE HYDROGEL CONTAINING METAL-ORGANIC FRAMEWORK PARTICLES FOR NONINVASIVE OCULAR DRUG DELIVERY” (University of Pittsburgh - Of the Commonwealth System of …, priority 2024, published 2025):

Experiment: Biodistribution study of ovalbumin in rabbit eye tissues and plasma, quantified with ELISA
Type: in vivo, New Zealand white rabbits
Method: Biodistribution studies involved healthy New Zealand white rabbits (n=5). The right eye of the rabbits was given a 100 μL of gel with the MOF and PLGA MP particles, independently, and a 50 μL injection of 10 mg/mL ovalbumin solution, for comparative purposes. The left eye was the experimental control. At 1 and 3 days, rabbits were sacrificed, and both eyes were removed. Aqueous humor, vitreous humor, retina-choroid and plasma were collected, and time-dependent concentrations were quantified with ELISA.
After one administration of the topical delivery system, ovalbumin is detectable in the aqueous humor, vitreous humor, retina-choroid, and plasma. […] However, these concentrations are 10^5 lower than what is seen with intravitreal injections after 3 days.

[1] = after one administration of the topical delivery system, rabbit

B1: ovalbumin (protein, UniProt P01012 2-386, looked up)
Ovalbumin: GSIGAASMEFCFDVFKELKVHHANENIFYCPIAIMSALAMVYLGAKDSTRTQINKVVRFDKLPGFGDSIEAQCGTSVNVHSSLRDILNQITKPNDVYSFSLASRLYAEERYPILPEYLQCVKELYRGGLEPINFQTAADQARELINSWVESQTNGIIRNVLQPSSVDSQTAMVLVNAIVFKGLWEKAFKDEDTQAMPFRVTEQESKPVQMMYQIGLFRVASMASEKMKILELPFASGTMSMLVLLPDEVSGLEQLESIINFEKLTEWTSSNVMEERKIKVYLPRMKMEEKYNLTSVLMAMGITDVFSSSANLSGISSAESLKISQAVHAAHAEINEAGREVVGSAEAGVDAASVSEEFRADHPFLFCIKHIATNAVLFFGRCVSP
notes: test agent, acting as a surrogate agent for other anti-VEGF proteins
With B1 the “ovalbumin detection in aqueous humor” value (after one administration of the topical delivery system (100 μL gel with particles), rabbit) was “detectable”, the “ovalbumin concentration in retina-choroid relative to vitreous humor” value [1] was 9 × and the “ovalbumin concentration in the vitreous humor” value [1] was ~1 ng/mL. For the same molecule, the “ovalbumin detection in plasma” value [1] was “detectable”, the “ovalbumin detection in retina-choroid” value [1] was “detectable” and the “ovalbumin detection in vitreous humor” value [1] was “detectable”. For the same molecule, the “factor by which concentrations are lower than with intravitreal injections” value (topical delivery system vs intravitreal injection, after 3 days) was 10^5.
